Assay results reported in the supplement of paper PMC10567573.

B1: SERPINB5 (parent)
chain: FPESETKECPFRVNKVCGAACSSK

Variants of: B1
Assay: protein stability index of a GFP-peptide fusion (GPS, HEK-293T) (PSI 1-6); higher = more stable
Conditions: c terminus: a fixed tail appended
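Note: lentivirally expressed fusions sorted by FACS into six bins by GFP to DsRed ratio, PSI derived from sequencing read proportions per bin multiplied by bin number.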

Variant	protein stability index
FPESETKEAPFRVNKVCGAACSSK	4.49
FPESETKEVPFRVNKVCGAACSSK	4.4
FPESETKEDPFRVNKVCGAACSSK	3.87
FPESETKERPFRVNKVCGAACSSK	4.34
FPESETKEYPFRVNKVCGAACSSK	2.92
FPESETKEIPFRVNKVCGAACSSK	4.39
SPESETKECPFRVNKVCGAACSSK	5.08
RPESETKECPFRVNKVCGAACSSK	4.65
WPESETKECPFRVNKVCGAACSSK	3.85
NPESETKECPFRVNKVCGAACSSK	4.61
TPESETKECPFRVNKVCGAACSSK	2.73
KPESETKECPFRVNKVCGAACSSK	4.89
GPESETKECPFRVNKVCGAACSSK	4.7
VPESETKECPFRVNKVCGAACSSK	4.5
YPESETKECPFRVNKVCGAACSSK	3.41
EPESETKECPFRVNKVCGAACSSK	5.05
FPESETKECPFRVNKVCWAACSSK	3.39
FPESETKECPFRVNKVCVAACSSK	1.75
FPESETKECPFRVNKVCKAACSSK	3.24
FPESETKECPFRVNKVCDAACSSK	2.89
FPESETKECPFRVNKVCFAACSSK	2.09
FPESETKECPFRVNKVCQAACSSK	2.66
FPESETKECPFRVNKVCAAACSSK	2.65
FPESETKECPFRVNKVCGAACSSL	2.13

Variant	protein stability index
FPESETKECPFRVNKVCGAACSSA	2.42
FPESETKECPFRVNKVCGAACSSM	2
FPESETKECPFRVNKVCGAACSSQ	2.45
FPESETKECPFRVNKVCGAACSSW	1.46
FPESETKECPFRVNKVCGAACSSY	2.25
FPESETKECPFRVNKVCGAACSST	2.48
FPESETKECPFRVNKVCGAACSSR	2.05
FPESETKECAFRVNKVCGAACSSK	2.95
FPESETKECHFRVNKVCGAACSSK	3.62
FPESETKECSFRVNKVCGAACSSK	3.96
FPESETKECLFRVNKVCGAACSSK	2.14
FPESETKECRFRVNKVCGAACSSK	3.63
FPESETKECFFRVNKVCGAACSSK	2.55
FPESETKECEFRVNKVCGAACSSK	4.31
FPESETKECPFRVNKVDGAACSSK	2.81
FPESETKECPFRVNKVWGAACSSK	1.76
FPESETKECPFRVNKVVGAACSSK	2.88
FPESETKECPFRVNKVYGAACSSK	2.51
FPESETKECPFRVNKVKGAACSSK	3.12
FPESETKECPFRVNKVPGAACSSK	2.29
FPESETKECPFRVNKVLGAACSSK	2.47
FPESETKECPFRVNKVSGAACSSK	3.13
FPESETKECPFRVNKVIGAACSSK	3.16
FPESETKECPFRVNKVGGAACSSK	2.91

Variant	protein stability index
FPESETKECPFRVNHVCGAACSSK	4.17
FPESETKECPFRVNPVCGAACSSK	2.58
FPESETKECPFRVNNVCGAACSSK	2.24
FPESETKECPFRVNCVCGAACSSK	3.04
FPESETKECPFRVNTVCGAACSSK	2.48
FPESETKECPFRVNEVCGAACSSK	2.83
FPESETKECPFRVNIVCGAACSSK	2.12
FPESETKECPFRVNAVCGAACSSK	3.17
FPESETKECPFRVNLVCGAACSSK	2.61
FPESETKECPFRVNRVCGAACSSK	2.76
FPESEGKECPFRVNKVCGAACSSK	2.09
FPESEIKECPFRVNKVCGAACSSK	2.82
FPESERKECPFRVNKVCGAACSSK	2.63
FPESEFKECPFRVNKVCGAACSSK	2.23
FPESEMKECPFRVNKVCGAACSSK	2.63
FPESEYKECPFRVNKVCGAACSSK	2.28
FPESEHKECPFRVNKVCGAACSSK	2.56
FPESEEKECPFRVNKVCGAACSSK	3.47
FPESETKECPFRVNKGCGAACSSK	2.9
FPESETKECPFRVNKPCGAACSSK	2.11
FPESETKECPFRVNKTCGAACSSK	2.71
FPESETKECPFRVNKMCGAACSSK	2.18
FPESETKECPFRVNKICGAACSSK	2.04
FPESETKECPFRVNKHCGAACSSK	2.17

Variant	protein stability index
FPESETKECPFRVNKQCGAACSSK	2.67
FPESETKECPFRVNKACGAACSSK	3.03
FPESETKECPFRVNKSCGAACSSK	2.28
FPESETKECPFRVNKNCGAACSSK	2.82
FPESETKECPFRVNKVCGAACNSK	2.62
FPESETKECPFRVNKVCGAACESK	2.57
FPESETKECPFRVNKVCGAACISK	2.27
FPESETKECPFRVNKVCGAACRSK	2.36
FPESETKECPFRVNKVCGAACVSK	2.1
FPESETKECPFRVNKVCGAACGSK	3.07
FPESETKECPFRVNKVCGAACPSK	2.67
FPESETKECPFRVNKVCGAACCSK	2.27
FPESETKECPFRVNKVCGAACQSK	2.66
FPESETKECPFRVNKVCGAACMSK	2.4
FPESETKECPFRVNKVCGAACLSK	1.93
FPESETKECPFRVNKVCGAAESSK	3.19
FPESETKECPFRVNKVCGAAFSSK	1.94
FPESETKECPFRVNKVCGAATSSK	2.62
FPESETKECPFRVNKVCGAADSSK	2.81
FPESETKECPFRVNKVCGAAKSSK	3.19
FPESETKECPFRVNKVCGAAYSSK	2.51
FPESETKECPFRVNKVCGAAMSSK	2.35
